Here are results for ten molecules from US20090291081A1 (AbbVie / Abbott, published 2009).

Where two headings read alike, the source gives them in different places.

Assay [1] concerns the target T1, human IL-1β (human, UniProt P01584 117-269). As to the kind of experiment: cell-based or functional assay.
Assay [2] has as its target T1, human IL-1β. Kind of assay: BIAcore (SPR). (Surface plasmon resonance follows binding to a sensor surface in real time, without labels.)
The target in assay [3] is T2, human IL-1α (human, UniProt P01583 113-271).
T2 sequence (looked up): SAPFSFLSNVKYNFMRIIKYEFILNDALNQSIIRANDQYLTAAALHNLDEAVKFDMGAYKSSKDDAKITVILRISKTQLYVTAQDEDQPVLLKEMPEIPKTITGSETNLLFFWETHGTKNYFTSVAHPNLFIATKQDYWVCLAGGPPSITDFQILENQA
Kind of assay: cell-based or functional assay.

Assay [4] has as its target T2, human IL-1α. As to the kind of experiment: cell-based or functional assay. The source holds these as a separate data set.
Assay [5] has as its target T2, human IL-1α. Kind of assay: Table 62 IC50; RBA presumed.
Assay [6] deals with T2, human IL-1α. As to the kind of experiment: BIAcore (SPR).
The target of assay [7] is T3, human IL-1α (human, UniProt P01583 113-271).
T3 construct: also called hIL-1α; rhIL-1 alpha
T3 sequence (looked up): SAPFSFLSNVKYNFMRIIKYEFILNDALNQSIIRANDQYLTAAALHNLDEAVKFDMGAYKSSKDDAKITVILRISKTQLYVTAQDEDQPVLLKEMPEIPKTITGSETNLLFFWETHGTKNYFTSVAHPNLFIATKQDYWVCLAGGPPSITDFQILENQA
Kind of assay: method not given.

Assay [8] concerns the target T3, human IL-1α. Kind of assay: cell-based or functional assay. The source holds these as a separate data set.

B1: ABT2-65 (other)
VH: EVQLLESGGGLVQPGGSLRLSCAASGFTFEDYQMGWVRQAPGKGLEWVSSISAMGNRTYYADSVKGRFTISRDDSKNTLYLQMNSLRAEDTAVYYCAKNLVRTQSKMWMFDYWGQGTLVTVSS
notes: VH dAb
Broadly, the Kd is the constant that tells how readily two partners part at equilibrium. Higher therefore signals a looser complex. In the case of B1, the “MRC5 ND50” value with human IL-1β [1] turned out to be 266 nM. In the assay with human IL-1β [2], this molecule showed a Kd of 28 nM.

B2: ABT1-86 (other)
VH: EVQLLESGGGLVQPGGSLRLSCAASGFTFDRYIMAWVRQAPGKGLEWVSSITPSGAATYYADSVKGRFTISRDNSKNTLYLQMNSLRAEDTAVYYCAEEPADRYSTWTFDYWGQGTLVTVSS
notes: VH dAb
For orientation: IC50 means the concentration at which inhibition is half-maximal. Lower therefore signals greater potency. B2 had an ND50 with human IL-1α [3] of 900 nM. Besides, the “MRC5 ND50” value with human IL-1α [4] is 900 nM. Moreover, the concentration for half-maximal inhibition (IC50) in the assay with human IL-1α [5] was 1000 nM. This molecule had a Kd in the assay with human IL-1α [6] of 110 nM.

B3: ABT1-95-4 (other)
VL: DIQMTQSPSSLSASVGDRVTITCRASQPIVRNLRWYQQKPGKAPKLLIYSSSYLQSGVPSRFSGSGSGTDFTLTISSLQPEDFATYHCQQGYRWPVTFGQGTKVEIKR
notes: dAb, Vκ, to IL-1α
The molecule B3 gave a Kd with human IL-1α [7] of 0.9 nM. Besides, in the assay with human IL-1α [8], the “MRC5 ND50” value came to 0.9 nM.

B4: ABT1-95 (other)
VL: DIQMTQSPSSLSASVGDRVTITCRASQPIHGNLRWYQQKPGKAPKLLIYNISNLQSGVPSRFSGSGSGTDFTLTISSLQPEDFATYYCQQGYRWPVTFGQGTKVEIKR
notes: VK dAb
Take B4: the ND50 with human IL-1α [3] was found to be 800 nM. For the same molecule, the “MRC5 ND50” value with human IL-1α [4] was 800 nM. In addition, the midpoint of inhibition with human IL-1α [5], the IC50, lay at 500 nM. This molecule also registered a Kd with human IL-1α [6] of 45 nM.

B5: ABT1-122 (other)
VL: DIQMTQSPSSLSASVGDRVTITCRASQPIWTELNWYQQKPGKAPKLLIYGSSSLQSGVPSRFSGSGSGTDFTLTISSLQPEDFATYYCQQFAYFPATFGQGTKVEIKR
notes: VK dAb
As to B5, in the assay with human IL-1α [3], the ND50 came out at 100 nM. Moreover, the “MRC5 ND50” value in the assay with human IL-1α [4] was 50 nM. Moreover, the IC50 in the assay with human IL-1α [5] is 80 nM. Further, binding in the assay with human IL-1α [6] was characterised by a dissociation constant (Kd) of 42 nM.

B6: ABT2-108 (other)
VH: EVQLLESGGGLVQPGGSLRLSCAASGFTFAEYTMMWVRQAPGKGLEWVSRIGQDGKNTYYADSVKGRFTISRDNSKNTLYLQMNSLRAEDTAVYYCAKYTGRVGVHHLFDYWGQGTLVTSS
notes: VH dAb
B6: the “MRC5 ND50” value in the assay with human IL-1β [1] was determined as 200 nM. In the assay with human IL-1β [2], this molecule returned a dissociation constant (Kd) of 110 nM.

B7: ABT2-46 (other)
VL: DIQMTQSPSSLSASVGDRVTITCRASQSIIEWLSWYQQKPGKAPKLLIYRTSVLQSGVPSRFSGSGSGTDFTLTISSLQPEDFATYYCQQNEFWPFTFGQGTKVEIKR
notes: VK dAb
In the case of B7, the “MRC5 ND50” value with human IL-1β [1] was 386 nM. In the assay with human IL-1β [2], this molecule had a dissociation constant Kd of 2800 nM.

B8: ABT2-76 (other)
VL: DIQMTQSPSSLSASVGDRVTITCRASQSIDRWLAWYQQKPGKAPKLLIYRGSILQSGVPSRFSGSGSGTDFTLTISSLQPEDFATYYCQQVAFWPPTFGQGTKVEIKR
notes: VK dAb
With B8, in the assay with human IL-1β [1], the “MRC5 ND50” value stood at 456 nM. Binding with human IL-1β [2] was put at a Kd of 1300 nM.

B9: ABT2-42 (other)
VL: DIQMTQSPSSLSASVGDRVTITCRASQYIEKWLTWYQQKPGKAPTLLIYRGSLLQSGVPSRFSGSGSGTDFTLTISSLQPEDFATYYCQQTEYWPFTFGQGTKVEIKR
notes: VK dAb
In the case of B9, the “MRC5 ND50” value with human IL-1β [1] was found to be 770 nM. The molecule also registered a Kd with human IL-1β [2] of 54000 nM.

B10: ABT2-13 (other)
VH: EVQLLESGGGLVQPGGSLRLSCAASGFTFRDYVMYWARQAPGKGLEWVSRIDPMGSSTYYADSVKGRFTISRDNSKNTLYLQMNSLRAEDTAVYYCAKPEGNFDYWGQGTLVTVSS
notes: VH dAb
For the molecule B10, in the assay with human IL-1β [1], the “MRC5 ND50” value was ~1000 nM. This molecule also had a Kd in the assay with human IL-1β [2] of 930 nM.
